From the Human Domainome abundance scans (Beltran et al. 2025)
± gives the uncertainty stated by the source.

B1: Nuclear receptor subfamily 4 group A member 2, residues 260 to 336; numbered along this chain, P43354 (parent)
chain: EGLCAVCGDNAACQHYGVRTCEGCKGFFKRTVQKNAKYVCLANKNCPVDKRRRNRCQYCRFQKCLAVGMVKEVVRTD
B2: Ankyrin repeat and SAM domain-containing protein 6, residues 774 to 836; numbered along this chain, Q68DC2 (parent)
chain: DEDELTGILKKLSLEKYQPIFEEQEVDMEAFLTLTDGDLKELGIKTDGSRQQILAAISELNAG

Variants of: B1
Test: abundance fitness (aPCA) (normalised: wild type 0, dead -1); higher = more abundant; growth selection in yeast, the domain comes from the species named
Conditions: Homo sapiens
L3F showed an abundance fitness of -0.026 ± 0.34.
Work on L3V yielded an abundance fitness of -0.054 ± 0.19.
In the case of Q14R, the abundance fitness is reported as -0.061 ± 0.079.
With Q14T the abundance fitness was -0.013 ± 0.15.
With Q14I the abundance fitness was -0.211 ± 0.4.
For Q14E, the abundance fitness was -0.129 ± 0.095.
In the case of Q14S, the abundance fitness is reported as 0.117 ± 0.14.
With Q14P the abundance fitness was -0.012 ± 0.097.
Variant Q14D has an abundance fitness of -0.189 ± 0.1.
Variant Q14N has an abundance fitness of -0.088 ± 0.21.
Q14G showed an abundance fitness of 0.005 ± 0.07.
Work on Q14L yielded an abundance fitness of 0.221 ± 0.073.
Q14V showed an abundance fitness of 0.095 ± 0.077.
Q14W showed an abundance fitness of 0.017 ± 0.088.
Q14M showed an abundance fitness of 0.199 ± 0.079.
With Q14K the abundance fitness was 0.256 ± 0.1.
Q14A gave an abundance fitness of 0.207 ± 0.089.
Q14Y showed an abundance fitness of 0.572 ± 0.32.
Work on R19W yielded an abundance fitness of -0.053 ± 0.077.
R19P gave an abundance fitness of 0.037 ± 0.098.
Work on R19L yielded an abundance fitness of 0.026 ± 0.06.
Variant R19H has an abundance fitness of 0.137 ± 0.11.
For R19A, the abundance fitness was 0.015 ± 0.056.
R19C showed an abundance fitness of 0.009 ± 0.092.
Variant R19S has an abundance fitness of 0.034 ± 0.063.
In the case of R19I, the abundance fitness is reported as -0.03 ± 0.12.
For R19N, the abundance fitness was 0.182 ± 0.15.
Variant R19Q has an abundance fitness of -0.053 ± 0.074.
R19F gave an abundance fitness of 0.14 ± 0.13.
R19Y showed an abundance fitness of -0.12 ± 0.19.
In the case of R19D, the abundance fitness is reported as -0.202 ± 0.27.
Work on R19E yielded an abundance fitness of 0.064 ± 0.073.
Work on R19K yielded an abundance fitness of 0.05 ± 0.083.
With R19M the abundance fitness was -0.175 ± 0.089.
For R19V, the abundance fitness was 0.005 ± 0.062.
Variant G2V has an abundance fitness of -0.191 ± 0.26.
Work on G2S yielded an abundance fitness of -0.075 ± 0.28.
For H15M, the abundance fitness was 0.054 ± 0.1.
H15A gave an abundance fitness of -0.138 ± 0.084.
Variant H15E has an abundance fitness of -0.106 ± 0.091.
H15L gave an abundance fitness of -0.014 ± 0.07.
Work on H15V yielded an abundance fitness of 0.016 ± 0.072.
With H15Q the abundance fitness was -0.318 ± 0.26.
For H15C, the abundance fitness was -0.097 ± 0.13.
Variant H15S has an abundance fitness of -0.053 ± 0.075.
Variant H15N has an abundance fitness of -0.012 ± 0.15.
H15T showed an abundance fitness of 0.01 ± 0.12.
In the case of H15K, the abundance fitness is reported as -0.101 ± 0.25.
In the case of H15G, the abundance fitness is reported as -0.082 ± 0.07.
Variant H15P has an abundance fitness of 0.104 ± 0.1.
Variant H15W has an abundance fitness of 0.013 ± 0.078.
For H15R, the abundance fitness was -0.137 ± 0.053.
G23E showed an abundance fitness of -0.016 ± 0.47.
Variant G23A has an abundance fitness of -0.136 ± 0.23.
In the case of G23C, the abundance fitness is reported as 0.065 ± 0.27.
T20S gave an abundance fitness of 0.204 ± 0.26.
A5L showed an abundance fitness of 0.219 ± 0.22.
With A5R the abundance fitness was -0.026 ± 0.25.
Variant D9G has an abundance fitness of 0.05 ± 0.2.
For D9W, the abundance fitness was -0.058 ± 0.45.
G17T gave an abundance fitness of -0.097 ± 0.11.
For G17R, the abundance fitness was -0.173 ± 0.094.
For G17S, the abundance fitness was -0.371 ± 0.17.
Variant G17H has an abundance fitness of -0.004 ± 0.33.
Variant G17M has an abundance fitness of -0.076 ± 0.12.
In the case of G17Q, the abundance fitness is reported as 0.044 ± 0.15.
In the case of G17L, the abundance fitness is reported as -0.133 ± 0.099.
With G17W the abundance fitness was -0.383 ± 0.33.
G17E gave an abundance fitness of -0.116 ± 0.19.
G17I showed an abundance fitness of 0.092 ± 0.4.
G17V showed an abundance fitness of -0.364 ± 0.14.
G17P gave an abundance fitness of -0.841 ± 0.34.
G17C gave an abundance fitness of 0.255 ± 0.26.
G17K gave an abundance fitness of -0.346 ± 0.25.
In the case of V18L, the abundance fitness is reported as -0.15 ± 0.098.
In the case of V18H, the abundance fitness is reported as -0.387 ± 0.24.
With V18W the abundance fitness was -0.484 ± 0.13.
For V18F, the abundance fitness was -0.111 ± 0.11.
V18E showed an abundance fitness of -0.044 ± 0.14.
For V18P, the abundance fitness was -0.11 ± 0.092.
For V18S, the abundance fitness was -0.121 ± 0.082.
V18C showed an abundance fitness of -0.263 ± 0.35.
In the case of V18R, the abundance fitness is reported as -0.29 ± 0.12.
V18Q showed an abundance fitness of -0.161 ± 0.12.
Variant V18G has an abundance fitness of -0.112 ± 0.07.
For V18A, the abundance fitness was 0.116 ± 0.12.
G8L showed an abundance fitness of 0.457 ± 0.39.
Variant G8M has an abundance fitness of -0.019 ± 0.21.
G8D showed an abundance fitness of -0.459 ± 0.24.
In the case of C13A, the abundance fitness is reported as 0.1 ± 0.088.
Work on C13Y yielded an abundance fitness of -0.138 ± 0.36.
Work on C13V yielded an abundance fitness of 0.046 ± 0.061.
C13D gave an abundance fitness of -0.022 ± 0.22.
In the case of C13R, the abundance fitness is reported as -0.103 ± 0.075.
For C13L, the abundance fitness was 0.083 ± 0.083.
With C13G the abundance fitness was 0.057 ± 0.054.
Variant C13F has an abundance fitness of 0.116 ± 0.18.
For C13M, the abundance fitness was 0.239 ± 0.08.
C13H showed an abundance fitness of 0.136 ± 0.31.
C13T showed an abundance fitness of 0.006 ± 0.098.
C13E gave an abundance fitness of 0.03 ± 0.085.
With C13W the abundance fitness was 0.082 ± 0.07.
C13I gave an abundance fitness of -0.298 ± 0.43.
In the case of C13S, the abundance fitness is reported as 0.092 ± 0.075.
In the case of C13K, the abundance fitness is reported as 0.099 ± 0.11.
For C21L, the abundance fitness was -0.725 ± 0.38.
C21G showed an abundance fitness of -0.46 ± 0.23.
C21A gave an abundance fitness of -0.632 ± 0.33.
For C21Q, the abundance fitness was 0.041 ± 0.45.
With C21R the abundance fitness was -0.981 ± 0.33.
E22W gave an abundance fitness of -0.208 ± 0.092.
E22Q gave an abundance fitness of 0.089 ± 0.19.
Variant E22H has an abundance fitness of -0.02 ± 0.13.
E22I gave an abundance fitness of -0.393 ± 0.2.
E22V gave an abundance fitness of -0.213 ± 0.08.
E22N showed an abundance fitness of 0.248 ± 0.25.
In the case of E22K, the abundance fitness is reported as -0.067 ± 0.12.
With E22M the abundance fitness was 0.027 ± 0.2.
For E22G, the abundance fitness was -0.142 ± 0.058.
For E22S, the abundance fitness was -0.204 ± 0.11.
Variant E22P has an abundance fitness of -0.001 ± 0.094.
E22L showed an abundance fitness of -0.067 ± 0.062.
E22Y gave an abundance fitness of 0.06 ± 0.25.
In the case of E22F, the abundance fitness is reported as -0.102 ± 0.16.
With E22D the abundance fitness was 0.049 ± 0.11.
Y16M gave an abundance fitness of 0.383 ± 0.46.
Y16G gave an abundance fitness of -0.01 ± 0.07.
With Y16P the abundance fitness was -0.112 ± 0.15.
Variant Y16S has an abundance fitness of -0.1 ± 0.15.
For Y16R, the abundance fitness was -0.051 ± 0.14.
For Y16W, the abundance fitness was -0.351 ± 0.17.
Y16N gave an abundance fitness of 0.029 ± 0.14.
In the case of Y16I, the abundance fitness is reported as -0.432 ± 0.38.
For Y16L, the abundance fitness was -0.081 ± 0.12.
In the case of Y16A, the abundance fitness is reported as 0.049 ± 0.065.
For Y16Q, the abundance fitness was 0.025 ± 0.12.
Y16V gave an abundance fitness of -0.185 ± 0.11.
Work on Y16T yielded an abundance fitness of -0.131 ± 0.14.
For Y16K, the abundance fitness was -0.185 ± 0.12.
Y16F showed an abundance fitness of 0.037 ± 0.13.
For C4R, the abundance fitness was -0.47 ± 0.35.

Variants of: B2
Test: as above
Conditions: Homo sapiens
A62W gave an abundance fitness of -0.475 ± 0.086.
In the case of A62N, the abundance fitness is reported as -0.07 ± 0.13.
Work on A62L yielded an abundance fitness of -0.178 ± 0.029.
For A62M, the abundance fitness was -0.2 ± 0.053.
With A62S the abundance fitness was -0.09 ± 0.051.
A62P showed an abundance fitness of -0.294 ± 0.075.
Work on A62T yielded an abundance fitness of -0.161 ± 0.057.
A62K gave an abundance fitness of -0.25 ± 0.11.
In the case of A62R, the abundance fitness is reported as -0.048 ± 0.043.
Work on A62V yielded an abundance fitness of -0.117 ± 0.064.
A62Q showed an abundance fitness of -0.121 ± 0.073.
With G63W the abundance fitness was -0.464 ± 0.085.
G63E gave an abundance fitness of -0.2 ± 0.15.
In the case of G63D, the abundance fitness is reported as -0.278 ± 0.11.
For G63F, the abundance fitness was -0.532 ± 0.12.
G63P gave an abundance fitness of -0.052 ± 0.097.
In the case of G63T, the abundance fitness is reported as -0.105 ± 0.068.
Variant G63N has an abundance fitness of -0.266 ± 0.12.
In the case of G63R, the abundance fitness is reported as 0.073 ± 0.05.
With G63K the abundance fitness was -0.166 ± 0.14.
In the case of G63H, the abundance fitness is reported as -0.216 ± 0.13.
G63S gave an abundance fitness of -0.069 ± 0.054.
G63C showed an abundance fitness of -0.111 ± 0.067.
G63V showed an abundance fitness of -0.135 ± 0.045.
G63A gave an abundance fitness of -0.007 ± 0.062.
In the case of G63I, the abundance fitness is reported as -0.161 ± 0.098.
